Test results as given in the supplement of paper PMC7877785.
± gives the uncertainty stated by the source.

Experiment: self-splicing fitness, log relative to wild type (ln ratio); higher = more splicing; Tetrahymena group I intron in knt gene, E. coli kanamycin selection, DiMSum; sequences stand for … in CUCUCU…GGAGGGAAAAGUUAUCAGGCAUGCACCUGGUAGCUAGUCUUUAAACCAAUAGAUUGCAUCGGUUUAAAAGGCAAGACCGUCAAAUUGCGGGAAAGGGGUCAACAGCCGUUCAGUACCAAGUCUCAGGGGAAACUUUGAGAUGGCCUUGCAAAGGGUAUGGUAAUAAGCUGACGGACAUGGUCCUAACCACGCAGCCAAGUCCUAAGUCAACAGAUCUUCUGUUGAUAUGGAUGCAGUUCACAGACUAAAUGUCGGUCGGGGAAGAUGUAUUCUUCUCAUAAGAUAUAGUCGGACCUCUCCUUAAUGGGAGCUAGCGGAUGAAGUGAUGCAACACUGGAGCCGCUGGGAACUAAUUUGUAUGCGAAAGUAUAUUGAUUAGUUUUGGAGUACUCGUGGUCG
Outline: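 Pooled colonies went to amplicon sequencing on an Illumina HiSeq 2500 after six replicate transformations. The plates were LB agar with 100 μg/mL carbenicillin, 50 μM IPTG and 0.2% rhamnose, with or without 25 μg/mL kanamycin, incubated overnight at 37°C or 30°C. The E. coli BL21(DE3) library had all eight P1ex-region intron nucleotides randomised, the intron placed in the knt kanamycin-resistance gene on pET-22b(+). DiMSum fitness is the error-weighted combination of replicate fold changes, kanamycin against none, normalised to wild type.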

AGCGAGCAAUAUUACGGUAU
self-splicing fitness (ln) (30 °C): -3.18 ± 0.16 | self-splicing fitness (ln) (37 °C): -2.54 ± 0.22

AGCGAGCAAUAUUACGGUGG
self-splicing fitness (ln) (30 °C): -2.67 ± 0.15 | self-splicing fitness (ln) (37 °C): -2.11 ± 0.25

AGCGAGCAAUAUUACGUAAC
self-splicing fitness (ln) (30 °C): -3.79 ± 0.29 | self-splicing fitness (ln) (37 °C): -1.46 ± 0.24

AGCGAGCAAUAUUACGUAGA
self-splicing fitness (ln) (30 °C): -3.17 ± 0.24 | self-splicing fitness (ln) (37 °C): -2.85 ± 0.29

AGCGAGCAAUAUUACGUGAG
self-splicing fitness (ln) (30 °C): -4.49 ± 0.27 | self-splicing fitness (ln) (37 °C): -2.79 ± 0.19

AGCGAGCAAUAUUACGUGCC
self-splicing fitness (ln) (30 °C): -3.37 ± 0.41 | self-splicing fitness (ln) (37 °C): -0.439 ± 0.22

AGCGAGCAAUAUUACGUGGG
self-splicing fitness (ln) (30 °C): -2.35 ± 0.27 | self-splicing fitness (ln) (37 °C): -3.19 ± 0.35

AGCGAGCAAUAUUACGUGUC
self-splicing fitness (ln) (30 °C): -3.1 ± 0.24 | self-splicing fitness (ln) (37 °C): -2.85 ± 0.22

AGCGAGCAAUAUUACGUUUU
self-splicing fitness (ln) (30 °C): -3.47 ± 0.28 | self-splicing fitness (ln) (37 °C): -1.66 ± 0.22

AGCUAGCAAUAUUACGAAAG
self-splicing fitness (ln) (30 °C): -3.5 ± 0.19 | self-splicing fitness (ln) (37 °C): -2.77 ± 0.25

AGCUAGCAAUAUUACGAACA
self-splicing fitness (ln) (30 °C): -2.24 ± 0.23 | self-splicing fitness (ln) (37 °C): -0.832 ± 0.2

AGCUAGCAAUAUUACGAAUG
self-splicing fitness (ln) (30 °C): -2.09 ± 0.17 | self-splicing fitness (ln) (37 °C): -2.27 ± 0.29

AGCUAGCAAUAUUACGACCU
self-splicing fitness (ln) (30 °C): 0.703 ± 0.17 | self-splicing fitness (ln) (37 °C): -0.166 ± 0.18

AGCUAGCAAUAUUACGACUG
self-splicing fitness (ln) (30 °C): -0.901 ± 0.072 | self-splicing fitness (ln) (37 °C): -0.941 ± 0.12

AGCUAGCAAUAUUACGCAAC
self-splicing fitness (ln) (30 °C): -3.6 ± 0.35 | self-splicing fitness (ln) (37 °C): -1.86 ± 0.32

AGCUAGCAAUAUUACGCACC
self-splicing fitness (ln) (30 °C): -0.833 ± 0.15 | self-splicing fitness (ln) (37 °C): -0.409 ± 0.19

AGCUAGCAAUAUUACGCACU
self-splicing fitness (ln) (30 °C): -1.19 ± 0.1 | self-splicing fitness (ln) (37 °C): -0.466 ± 0.13

AGCUAGCAAUAUUACGCCAC
self-splicing fitness (ln) (30 °C): -3.18 ± 0.32 | self-splicing fitness (ln) (37 °C): -2.45 ± 0.42

AGCUAGCAAUAUUACGCGGU
self-splicing fitness (ln) (30 °C): -4.02 ± 0.27 | self-splicing fitness (ln) (37 °C): -1.71 ± 0.13

AGCUAGCAAUAUUACGCGUU
self-splicing fitness (ln) (30 °C): -2.62 ± 0.091 | self-splicing fitness (ln) (37 °C): -2.11 ± 0.12

AGCUAGCAAUAUUACGGAAC
self-splicing fitness (ln) (30 °C): -2.7 ± 0.2 | self-splicing fitness (ln) (37 °C): -2.38 ± 0.24

AGCUAGCAAUAUUACGUCCG
self-splicing fitness (ln) (30 °C): -1.65 ± 0.23 | self-splicing fitness (ln) (37 °C): -0.915 ± 0.21

AGCUAGCAAUAUUACGUGGA
self-splicing fitness (ln) (30 °C): -3.53 ± 0.2 | self-splicing fitness (ln) (37 °C): -2.04 ± 0.14

AGCUAGCAAUAUUACGUGUG
self-splicing fitness (ln) (30 °C): -2.2 ± 0.06 | self-splicing fitness (ln) (37 °C): -1.7 ± 0.079

AGGAAGCAAUAUUACGACUC
self-splicing fitness (ln) (30 °C): -0.644 ± 0.3 | self-splicing fitness (ln) (37 °C): -0.886 ± 0.45

AGGAAGCAAUAUUACGAGGU
self-splicing fitness (ln) (30 °C): -3.85 ± 0.34 | self-splicing fitness (ln) (37 °C): -2.97 ± 0.24

AGGAAGCAAUAUUACGAUUG
self-splicing fitness (ln) (30 °C): -3.96 ± 0.36 | self-splicing fitness (ln) (37 °C): -3.3 ± 0.28

AGGAAGCAAUAUUACGCACC
self-splicing fitness (ln) (30 °C): -1.52 ± 0.16 | self-splicing fitness (ln) (37 °C): 0.0459 ± 0.16

AGGAAGCAAUAUUACGCCCA
self-splicing fitness (ln) (30 °C): -0.363 ± 0.42 | self-splicing fitness (ln) (37 °C): 1.47 ± 0.39

AGGAAGCAAUAUUACGCGUA
self-splicing fitness (ln) (30 °C): -1.87 ± 0.15 | self-splicing fitness (ln) (37 °C): -0.669 ± 0.11

AGGAAGCAAUAUUACGCGUU
self-splicing fitness (ln) (30 °C): -2.55 ± 0.17 | self-splicing fitness (ln) (37 °C): -1.01 ± 0.17

AGGAAGCAAUAUUACGGAUA
self-splicing fitness (ln) (37 °C): -2.01 ± 0.21

AGGAAGCAAUAUUACGGCGU
self-splicing fitness (ln) (30 °C): -0.156 ± 0.1 | self-splicing fitness (ln) (37 °C): -0.118 ± 0.11

AGGAAGCAAUAUUACGGGAA
self-splicing fitness (ln) (30 °C): -2.67 ± 0.25 | self-splicing fitness (ln) (37 °C): -2.08 ± 0.26

AGGAAGCAAUAUUACGGGGA
self-splicing fitness (ln) (30 °C): -2.97 ± 0.2 | self-splicing fitness (ln) (37 °C): -2.38 ± 0.16

AGGAAGCAAUAUUACGGUAC
self-splicing fitness (ln) (30 °C): -3.99 ± 0.36 | self-splicing fitness (ln) (37 °C): -3.03 ± 0.25

AGGAAGCAAUAUUACGGUCC
self-splicing fitness (ln) (30 °C): -1.54 ± 0.23 | self-splicing fitness (ln) (37 °C): -1.05 ± 0.4

AGGAAGCAAUAUUACGGUCU
self-splicing fitness (ln) (30 °C): -0.784 ± 0.079 | self-splicing fitness (ln) (37 °C): 0.265 ± 0.11

AGGAAGCAAUAUUACGGUGC
self-splicing fitness (ln) (30 °C): -3.36 ± 0.21 | self-splicing fitness (ln) (37 °C): -2.51 ± 0.2

AGGAAGCAAUAUUACGGUUA
self-splicing fitness (ln) (30 °C): -0.766 ± 0.1 | self-splicing fitness (ln) (37 °C): -0.654 ± 0.1

AGGAAGCAAUAUUACGUAAC
self-splicing fitness (ln) (30 °C): -3.65 ± 0.3 | self-splicing fitness (ln) (37 °C): -2.18 ± 0.42

AGGAAGCAAUAUUACGUAAG
self-splicing fitness (ln) (30 °C): -1.39 ± 0.11 | self-splicing fitness (ln) (37 °C): -2.01 ± 0.17

AGGAAGCAAUAUUACGUCUC
self-splicing fitness (ln) (30 °C): -2.91 ± 0.18 | self-splicing fitness (ln) (37 °C): -1.48 ± 0.21

AGGAAGCAAUAUUACGUGCG
self-splicing fitness (ln) (30 °C): -1.01 ± 0.1 | self-splicing fitness (ln) (37 °C): -1.04 ± 0.13

AGGAAGCAAUAUUACGUUAG
self-splicing fitness (ln) (30 °C): -2.95 ± 0.21 | self-splicing fitness (ln) (37 °C): -3.24 ± 0.29

AGGAAGCAAUAUUACGUUGU
self-splicing fitness (ln) (30 °C): -3.98 ± 0.18 | self-splicing fitness (ln) (37 °C): -2.82 ± 0.15

AGGCAGCAAUAUUACGACAC
self-splicing fitness (ln) (30 °C): -1.75 ± 0.18 | self-splicing fitness (ln) (37 °C): -0.221 ± 0.18
